# Test results as given in US9176064B2, “Bisubstrate fluorescent probes for protein kinase CK2” (University of Tartu, priority 2012, dated 2015).
# Where a SMILES comes first, the peptide text is derived from it. [ ]: non-standard residue; d: D form. The star is where a group is joined. X1 = O=C(CCCCCCCn1cnc2c(Br)c(Br)c(Br)c(Br)c21)*
# Legend:
# Test in all cases: Kinase panel residual activity
# Format in all cases: biochemical
# Conditions in all cases: compound at 1 micromolar
# [1] = biological target: T1, IKKb (Homo sapiens, UniProt O14920)
# T1 sequence (O14920 1-756): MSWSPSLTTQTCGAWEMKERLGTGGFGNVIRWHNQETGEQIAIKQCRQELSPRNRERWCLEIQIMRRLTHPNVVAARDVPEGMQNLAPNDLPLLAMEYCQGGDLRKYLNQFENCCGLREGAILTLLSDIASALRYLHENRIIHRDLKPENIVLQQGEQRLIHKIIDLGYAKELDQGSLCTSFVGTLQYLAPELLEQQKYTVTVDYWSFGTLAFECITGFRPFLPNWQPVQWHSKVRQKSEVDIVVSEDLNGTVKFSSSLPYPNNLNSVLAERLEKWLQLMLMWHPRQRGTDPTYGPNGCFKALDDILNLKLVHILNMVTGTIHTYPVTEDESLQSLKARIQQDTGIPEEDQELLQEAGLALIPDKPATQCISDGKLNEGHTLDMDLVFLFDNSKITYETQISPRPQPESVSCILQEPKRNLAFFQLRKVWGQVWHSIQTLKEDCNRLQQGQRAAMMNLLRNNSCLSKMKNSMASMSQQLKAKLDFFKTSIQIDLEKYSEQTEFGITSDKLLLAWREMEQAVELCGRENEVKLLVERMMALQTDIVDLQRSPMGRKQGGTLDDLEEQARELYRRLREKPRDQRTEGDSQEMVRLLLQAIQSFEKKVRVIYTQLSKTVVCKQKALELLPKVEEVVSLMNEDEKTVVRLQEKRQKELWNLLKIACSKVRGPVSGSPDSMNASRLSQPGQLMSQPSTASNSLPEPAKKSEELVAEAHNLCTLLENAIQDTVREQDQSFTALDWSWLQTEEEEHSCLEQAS
# [2] = biological target: T2, CHK1 (Homo sapiens, UniProt O14757)
# T2 sequence (O14757 1-476): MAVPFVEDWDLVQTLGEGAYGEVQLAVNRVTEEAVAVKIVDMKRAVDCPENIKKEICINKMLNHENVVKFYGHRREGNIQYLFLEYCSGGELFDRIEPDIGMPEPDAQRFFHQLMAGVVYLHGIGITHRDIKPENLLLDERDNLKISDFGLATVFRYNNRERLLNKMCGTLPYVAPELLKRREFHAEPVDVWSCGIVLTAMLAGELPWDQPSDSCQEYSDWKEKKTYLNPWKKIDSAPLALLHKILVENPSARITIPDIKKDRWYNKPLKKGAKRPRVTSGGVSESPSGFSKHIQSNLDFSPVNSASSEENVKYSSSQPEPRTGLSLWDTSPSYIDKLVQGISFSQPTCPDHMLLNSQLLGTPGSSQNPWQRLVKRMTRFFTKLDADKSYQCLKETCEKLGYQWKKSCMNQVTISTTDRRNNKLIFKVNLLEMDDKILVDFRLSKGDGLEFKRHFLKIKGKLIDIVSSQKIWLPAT
# [3] = biological target: T3, PRAK (Homo sapiens, UniProt Q8IW41)
# T3 sequence (Q8IW41 1-473): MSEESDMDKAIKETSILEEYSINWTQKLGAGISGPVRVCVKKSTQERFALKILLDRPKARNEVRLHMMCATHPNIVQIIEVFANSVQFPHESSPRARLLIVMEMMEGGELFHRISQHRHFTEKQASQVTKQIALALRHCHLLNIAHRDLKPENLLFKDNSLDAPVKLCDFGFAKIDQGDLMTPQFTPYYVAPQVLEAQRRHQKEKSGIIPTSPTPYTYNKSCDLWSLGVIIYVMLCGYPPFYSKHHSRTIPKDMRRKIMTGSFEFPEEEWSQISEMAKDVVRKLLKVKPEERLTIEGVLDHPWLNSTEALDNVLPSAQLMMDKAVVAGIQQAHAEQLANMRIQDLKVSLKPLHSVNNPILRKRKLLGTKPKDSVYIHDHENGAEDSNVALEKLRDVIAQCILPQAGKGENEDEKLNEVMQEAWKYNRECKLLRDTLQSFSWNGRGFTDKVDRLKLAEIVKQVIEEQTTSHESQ
# [4] = biological target: JAK2 (Homo sapiens, UniProt O60674)
# Sequence of JAK2 (O60674 whole entry, species assumed): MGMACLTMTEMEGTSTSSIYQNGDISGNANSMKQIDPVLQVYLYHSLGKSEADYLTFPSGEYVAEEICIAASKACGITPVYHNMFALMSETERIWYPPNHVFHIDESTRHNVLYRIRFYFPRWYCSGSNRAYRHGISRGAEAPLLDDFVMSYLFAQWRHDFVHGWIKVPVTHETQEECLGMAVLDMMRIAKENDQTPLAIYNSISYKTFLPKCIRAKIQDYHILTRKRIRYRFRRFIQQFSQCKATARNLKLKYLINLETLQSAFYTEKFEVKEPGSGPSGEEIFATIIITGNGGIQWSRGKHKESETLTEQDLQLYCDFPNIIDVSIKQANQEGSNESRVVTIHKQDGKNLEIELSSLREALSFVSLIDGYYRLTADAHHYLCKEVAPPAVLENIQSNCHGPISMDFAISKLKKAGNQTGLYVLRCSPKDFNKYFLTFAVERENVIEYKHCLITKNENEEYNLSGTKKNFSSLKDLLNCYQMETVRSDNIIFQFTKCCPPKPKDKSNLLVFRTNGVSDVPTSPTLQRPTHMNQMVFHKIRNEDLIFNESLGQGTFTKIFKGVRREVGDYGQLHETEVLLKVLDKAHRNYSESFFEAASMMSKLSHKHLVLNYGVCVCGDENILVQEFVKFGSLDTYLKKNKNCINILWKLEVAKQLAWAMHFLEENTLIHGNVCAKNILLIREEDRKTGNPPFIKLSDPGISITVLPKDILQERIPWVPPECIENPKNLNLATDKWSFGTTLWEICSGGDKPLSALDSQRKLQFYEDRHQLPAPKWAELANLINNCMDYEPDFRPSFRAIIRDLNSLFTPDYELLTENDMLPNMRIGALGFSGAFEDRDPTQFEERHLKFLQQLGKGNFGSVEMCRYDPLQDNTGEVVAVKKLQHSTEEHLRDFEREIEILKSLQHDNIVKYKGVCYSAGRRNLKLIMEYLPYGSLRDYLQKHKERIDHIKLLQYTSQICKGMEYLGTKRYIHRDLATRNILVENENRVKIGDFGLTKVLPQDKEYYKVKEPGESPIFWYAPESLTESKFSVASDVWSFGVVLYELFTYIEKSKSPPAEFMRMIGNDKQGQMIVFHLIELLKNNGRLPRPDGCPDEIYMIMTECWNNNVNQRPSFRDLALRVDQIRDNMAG
# [5] = biological target: DYRK1A (Homo sapiens, UniProt Q13627)
# [6] = biological target: PKCa (Homo sapiens, UniProt P17252)
# [7] = biological target: MEKK1 (Homo sapiens, UniProt Q13233)
# [8] = biological target: T4, ZAP70 (Homo sapiens, UniProt P43403)
# T4 sequence (P43403 1-619): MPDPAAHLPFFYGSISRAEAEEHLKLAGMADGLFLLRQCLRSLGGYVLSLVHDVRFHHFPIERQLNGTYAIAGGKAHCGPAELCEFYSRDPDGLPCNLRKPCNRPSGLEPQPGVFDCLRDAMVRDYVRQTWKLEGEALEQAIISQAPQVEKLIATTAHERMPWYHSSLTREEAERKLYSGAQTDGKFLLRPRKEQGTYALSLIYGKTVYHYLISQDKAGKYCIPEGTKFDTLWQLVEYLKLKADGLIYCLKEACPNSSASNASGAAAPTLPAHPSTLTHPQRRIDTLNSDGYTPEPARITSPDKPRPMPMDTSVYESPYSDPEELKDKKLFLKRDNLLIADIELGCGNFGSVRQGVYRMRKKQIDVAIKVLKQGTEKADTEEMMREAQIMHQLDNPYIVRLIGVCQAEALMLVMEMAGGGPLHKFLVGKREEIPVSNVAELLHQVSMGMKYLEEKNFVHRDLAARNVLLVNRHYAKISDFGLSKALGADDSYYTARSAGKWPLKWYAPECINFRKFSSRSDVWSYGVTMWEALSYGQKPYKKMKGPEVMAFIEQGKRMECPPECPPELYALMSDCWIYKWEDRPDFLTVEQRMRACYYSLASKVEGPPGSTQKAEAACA
# [9] = biological target: EPH-A2 (Homo sapiens, UniProt P29317)
# Sequence of EPH-A2 (P29317 24-976, species assumed): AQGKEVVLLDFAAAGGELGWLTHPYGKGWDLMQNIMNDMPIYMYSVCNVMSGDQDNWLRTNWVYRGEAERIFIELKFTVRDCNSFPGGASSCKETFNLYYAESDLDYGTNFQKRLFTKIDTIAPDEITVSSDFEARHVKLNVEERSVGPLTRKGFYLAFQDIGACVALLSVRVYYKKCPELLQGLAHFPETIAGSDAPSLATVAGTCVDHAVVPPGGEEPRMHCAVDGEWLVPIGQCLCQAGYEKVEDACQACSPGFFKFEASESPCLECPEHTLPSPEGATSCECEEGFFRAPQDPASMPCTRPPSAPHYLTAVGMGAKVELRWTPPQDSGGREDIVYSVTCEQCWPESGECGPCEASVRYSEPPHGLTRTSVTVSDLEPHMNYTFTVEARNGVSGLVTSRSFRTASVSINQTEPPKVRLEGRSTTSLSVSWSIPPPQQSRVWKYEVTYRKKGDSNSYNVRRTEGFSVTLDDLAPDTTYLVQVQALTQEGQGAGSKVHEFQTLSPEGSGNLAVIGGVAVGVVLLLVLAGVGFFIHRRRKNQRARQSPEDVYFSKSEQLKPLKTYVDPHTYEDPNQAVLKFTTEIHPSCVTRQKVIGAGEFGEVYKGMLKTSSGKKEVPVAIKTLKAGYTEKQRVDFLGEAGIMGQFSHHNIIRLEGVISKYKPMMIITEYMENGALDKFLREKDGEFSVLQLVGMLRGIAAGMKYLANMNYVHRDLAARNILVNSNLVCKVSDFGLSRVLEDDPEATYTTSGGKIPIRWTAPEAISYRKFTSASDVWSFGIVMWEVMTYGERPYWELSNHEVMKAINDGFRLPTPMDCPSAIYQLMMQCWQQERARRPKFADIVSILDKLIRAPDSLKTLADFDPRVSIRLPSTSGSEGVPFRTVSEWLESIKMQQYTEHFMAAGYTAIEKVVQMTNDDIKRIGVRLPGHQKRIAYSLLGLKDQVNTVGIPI
# [10] = biological target: MAPKAP-K3 (Homo sapiens, UniProt Q16644)
# Sequence of MAPKAP-K3 (Q16644 whole entry, species assumed): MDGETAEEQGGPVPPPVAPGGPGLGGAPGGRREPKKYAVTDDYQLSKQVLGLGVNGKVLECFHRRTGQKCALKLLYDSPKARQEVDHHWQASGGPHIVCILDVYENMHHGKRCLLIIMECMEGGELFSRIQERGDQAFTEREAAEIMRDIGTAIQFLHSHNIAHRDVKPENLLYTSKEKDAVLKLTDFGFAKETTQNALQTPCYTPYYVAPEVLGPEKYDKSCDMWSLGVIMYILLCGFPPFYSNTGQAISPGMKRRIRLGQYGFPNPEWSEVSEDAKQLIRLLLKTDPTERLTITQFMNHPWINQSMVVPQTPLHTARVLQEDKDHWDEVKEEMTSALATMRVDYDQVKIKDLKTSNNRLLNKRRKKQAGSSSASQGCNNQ
# [11] = biological target: RIPK2 (Homo sapiens, UniProt O43353)
# Sequence of RIPK2 (O43353 whole entry, species assumed): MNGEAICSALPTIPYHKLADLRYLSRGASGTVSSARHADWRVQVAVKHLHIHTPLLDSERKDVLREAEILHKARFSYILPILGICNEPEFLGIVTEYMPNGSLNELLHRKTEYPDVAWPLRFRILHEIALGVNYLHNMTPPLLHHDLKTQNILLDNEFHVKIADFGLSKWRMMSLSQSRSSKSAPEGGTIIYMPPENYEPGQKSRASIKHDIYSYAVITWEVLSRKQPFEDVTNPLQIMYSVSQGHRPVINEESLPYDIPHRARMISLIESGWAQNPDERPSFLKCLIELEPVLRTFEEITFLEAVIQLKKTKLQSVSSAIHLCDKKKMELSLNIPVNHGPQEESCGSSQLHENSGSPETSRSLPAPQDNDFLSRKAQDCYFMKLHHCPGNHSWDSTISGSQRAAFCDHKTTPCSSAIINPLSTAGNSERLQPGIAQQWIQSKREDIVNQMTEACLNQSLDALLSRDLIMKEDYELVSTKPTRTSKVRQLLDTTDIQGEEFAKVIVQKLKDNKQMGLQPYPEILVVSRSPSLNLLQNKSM
# [12] = biological target: p38a MAPK (Homo sapiens, UniProt Q16539)
# Sequence of p38a MAPK (Q16539 whole entry): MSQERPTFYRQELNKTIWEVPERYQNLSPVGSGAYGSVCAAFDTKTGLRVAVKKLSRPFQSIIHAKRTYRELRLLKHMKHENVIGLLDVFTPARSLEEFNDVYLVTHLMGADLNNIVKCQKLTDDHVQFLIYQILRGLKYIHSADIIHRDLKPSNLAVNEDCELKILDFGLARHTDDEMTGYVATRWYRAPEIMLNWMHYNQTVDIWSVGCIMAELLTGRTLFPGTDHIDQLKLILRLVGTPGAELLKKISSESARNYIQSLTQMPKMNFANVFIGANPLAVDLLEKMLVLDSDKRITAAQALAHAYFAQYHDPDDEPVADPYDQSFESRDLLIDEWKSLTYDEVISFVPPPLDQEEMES
# [13] = biological target: JNK3 (Homo sapiens, UniProt P53779)
# Sequence of JNK3 (P53779 whole entry, species assumed): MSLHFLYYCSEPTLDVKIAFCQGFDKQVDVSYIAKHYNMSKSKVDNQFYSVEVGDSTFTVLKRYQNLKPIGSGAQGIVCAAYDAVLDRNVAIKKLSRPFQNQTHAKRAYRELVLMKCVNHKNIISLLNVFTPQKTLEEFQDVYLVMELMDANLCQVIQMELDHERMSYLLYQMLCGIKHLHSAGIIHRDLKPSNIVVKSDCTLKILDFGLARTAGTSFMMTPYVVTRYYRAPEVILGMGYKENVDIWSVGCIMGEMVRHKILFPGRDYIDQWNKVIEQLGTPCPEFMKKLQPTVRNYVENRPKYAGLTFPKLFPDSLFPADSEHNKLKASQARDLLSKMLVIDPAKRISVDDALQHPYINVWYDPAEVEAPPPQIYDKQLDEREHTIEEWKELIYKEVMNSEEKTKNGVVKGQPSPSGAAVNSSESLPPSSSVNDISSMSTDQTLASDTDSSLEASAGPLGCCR
compound,measurement,setting,value
NCCCC[C@H](NC(=O)[C@H](CC(=O)O)NC(=O)[C@H](CC(=O)O)NC(=O)[C@H](CC(=O)O)NC(=O)[C@H](CC(=O)O)NC(=O)[C@H](CC(=O)O)NC(=O)[C@@H](CC(=O)O)NC(=O)CCCCCCCn1cnc2c(Br)c(Br)c(Br)c(Br)c21)C(=O)O [TBBI-OcA-(D-Asp)-(L-Asp)5-(L-Lys)-OH] (X1-[dD]DDDDDK-OH),remaining activity at 1 µM,[1],55%
same,remaining activity at 1 µM,[2],134%
same,remaining activity at 1 µM,[3],74%
same,remaining activity at 1 µM,[4],66%
same,remaining activity at 1 µM,[5],36%
same,remaining activity at 1 µM,[6],94%
same,remaining activity at 1 µM,[7],95%
same,remaining activity at 1 µM,[8],97%
same,remaining activity at 1 µM,[9],80%
same,remaining activity at 1 µM,[10],69%
same,remaining activity at 1 µM,[11],120%
same,remaining activity at 1 µM,[12],116%
same,remaining activity at 1 µM,[13],85%
